Reference: the supplement of paper PMC10201428
± gives the standard deviation of the averaged measurements.

B1: library; a variant is named by its letters at N, in order (parent)
chain: ACATTTGTTGATACAACCATAAAATGATAATTACACCCATAAATTGATAATTATCACACCCANNNNNNNNNNNNNNCTCTGATCATAGTCAGACCAACATTGCTACGACCCGTATTCGCACCGACAC

What was measured:
[1] = variants of: B1; assay: relative integration efficiency (T-RL orientation) vs wild-type transposon end (log2 (normalized fold change)); transposon end mutated: right end (5 bp flank + 75 bp right end); higher = more efficient transposition; conditions: with VchCAST RNA-guided transposition machinery (E. coli BL21(DE3) host, lacZ target)
Procedure: (§1)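 Pooled, barcoded VchCAST (Tn6677) mini-transposon donor libraries; each variable transposon-end sequence sits in a fixed pDonor mini-transposon context (10-bp barcode and cargo not included). Left- or right-end libraries were co-transformed with pEffector (TniQ-Cascade, TnsABC, lacZ crRNA, T7, 0.1 mM IPTG) into E. coli BL21(DE3) and grown 18 h at 37 C. T-LR and T-RL junction amplicons were sequenced; output/input barcode fold change was normalised to the mean of four wild-type barcodes and log2-transformed. Two biological replicates; zero-count/undetected variants carry floor values (-10 / -15), censored here. Barcode uncoupling by PCR recombination adds noise.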

[2] = variants of: B1; assay: relative integration efficiency (T-LR orientation) vs wild-type transposon end (log2 (normalized fold change)); transposon end mutated: right end (5 bp flank + 75 bp right end); higher = more efficient transposition; conditions: with VchCAST RNA-guided transposition machinery (E. coli BL21(DE3) host, lacZ target)
Procedure: as §1

| Variant | relative integration efficiency (log2) [1] | relative integration efficiency (log2) [2] |
| --- | --- | --- |
| ATTTAACTATAACG T54A | -1.14 ± 0.19 | 2.49 ± 0.12 |
| ATTTAACTATAACG T54C | -1.04 ± 0.22 | 2.37 ± 0.24 |
| ATTTAACTATAACG T54G | -1.12 ± 0.37 | 2.49 ± 0.13 |
| ATTTAACTATAACG A13T | -1.09 ± 0.14 | 1.84 ± 0.15 |
| ATTTAACTATAACG A13C | -0.7 ± 0.17 | 2.25 ± 0.23 |
| ATTTAACTATAACG A11C | -0.753 ± 0.07 | 1.51 ± 0.15 |
| ATTTAACTATAACG A11G | -0.569 ± 0.088 | 1.83 ± 0.095 |
| ATTTAACTATAACG A11T | -0.284 ± 0.19 | 2.19 ± 0.049 |
| ATTTAACTATAACG A16G | -1.04 ± 0.027 | 2.09 ± 0.17 |
| ATTTAACTATAACG A16C | -1.24 ± 0.14 | 2 ± 0.11 |
| ATTTAACTATAACG A16T | -0.779 ± 0.2 | 2.59 ± 0.066 |
| ATAATTGATATTGC | -0.135 ± 0.017 | 1.11 ± 0.1 |
| ATTTAACTATAACG C38G | -0.843 ± 0.15 | 2.06 ± 0.035 |
| ATTTAACTATAACG C38T | -0.901 ± 0.15 | 2.05 ± 0.13 |
| ATTTAACTATAACG C38A | -1.04 ± 0.17 | 2.02 ± 0.11 |
| ATTTAACTATAACG T32A | -1.5 ± 0.28 | 2.13 ± 0.036 |
| ATTTAACTATAACG T32G | -1.87 ± 0.28 | 2.2 ± 0.18 |
| ATTTAACTATAACG A23C | -1.16 ± 0.088 | 1.98 ± 0.17 |
| ATTTAACTATAACG A23G | -0.928 ± 0.18 | 2.07 ± 0.26 |

| Variant | relative integration efficiency (log2) [1] | relative integration efficiency (log2) [2] |
| --- | --- | --- |
| ATTTAACTATAACG A23T | -0.809 ± 0.12 | 1.952 ± 0.015 |
| ATTTAACTATAACG A33C | -1.12 ± 0.26 | 2.34 ± 0.17 |
| ATTTAACTATAACG A33G | -0.971 ± 0.32 | 2.42 ± 0.046 |
| ATTTAACTATAACG C18A | -0.906 ± 0.082 | 2.01 ± 0.13 |
| ATTTAACTATAACG C18G | -1.04 ± 0.083 | 1.98 ± 0.099 |
| ATTTAACTATAACG C18T | -0.685 ± 0.013 | 2.16 ± 0.14 |
| ATTTAACTATAACG T12G | -0.699 ± 0.2 | 1.76 ± 0.15 |
| ATTTAACTATAACG T12A | -0.998 ± 0.097 | 2.03 ± 0.032 |
| TCCATTGATATTGC | -0.657 ± 0.14 | 2.16 ± 0.029 |
| ATTTAACTATAACG C36G | -1.16 ± 0.22 | 1.95 ± 0.11 |
| ATTTAACTATAACG C36A | -0.593 ± 0.052 | 2.4 ± 0.13 |
| ATTTAACTATAACG A47G | -0.679 ± 0.11 | 2.25 ± 0.039 |
| ATTTAACTATAACG A47T | -1.17 ± 0.26 | 1.84 ± 0.026 |
| ATTTAACTATAACG A47C | -0.686 ± 0.38 | 2.63 ± 0.064 |
| TTTATTGATATTGC | 0.0323 ± 0.048 | 0.91 ± 0.071 |
| ATTTAACTATAACG T48C | -1.24 ± 0.25 | 2.03 ± 0.086 |
| ATTTAACTATAACG T48G | -1.18 ± 0.2 | 1.85 ± 0.083 |
| TATTTTGATATTGC | -0.123 ± 0.052 | 0.19 ± 0.27 |
